Data: the DeepSol protein solubility set

Test: soluble on expression in E. coli; label from the status in PepcDB or PDB records
For “MANFEDFLTLDLRIGTVTHAEEFKEARVPAIKLEIDFGELGMKQSSAQITKRYNPEDLIGQQIVAVVNFPPKRVAGFKSEVLVLGGVPEAGDVVLLQPNMELPNGTKIS”, the “soluble on expression in E. coli” value was “not soluble”.
In the case of “MVAISDLRGLSLPEALGGIVEAIENVEVGEQVQFVLDSDADVEAITTHLSEYAECSAEKGDRFILLKVTKRAEFKADEEEEFRIDENTNVGRLIERYPEATEILASYGFTPLRNPVLRKTLAKTITLGRAKMLKKLSDEEFEEMLRKLRELRG”, the “soluble on expression in E. coli” value was “not soluble”.
For “MNYQDVLDFWFAPDHTNFWFAKDSLFDDEIRTQFSTVHQQATQAELWSWRQTVEGRLAEIIVLDQFSRNLYRDQAQAFAQDSMALALAQEAITQQLDAQLSPEQRSFLYMPFMHSESKLIHEFALKLFQKLGNEINLSFEKKHKVIIDQFGRYPHRNAILGRQSTPEELEFLTQPNSHF”, the “soluble on expression in E. coli” value was “not soluble”.
With “GSHMNKKSFQCSNCSVTETIRWRNIRSKEGIQCNACFIYQRKYNKTRPVTAVNKYQKRKLKVQETNGVDSF” the “soluble on expression in E. coli” value was “soluble”.
With “MIYGILSKNLGMPTPTFLVCPDVVKFENVGQIAVVNGMVYLGGSVGIDKSGTLHKGLEEQTRQTFDNIRKCLEYANSGLDYIVSLNIFLSTSLSDSEEARFNELYREVFCVPATRPCRCCVRAQLQEGLLVEVVNVVAAQK” the “soluble on expression in E. coli” value was “soluble”.
For “MFDISHMGRLLIEDPEKKLQYFTTNNLDKLSVGKVQYNLLPNEKGGIKDDVTVYMLSEIEFFLCVNAANRQKVINWLSPHLKLRDLSGELVQIALQGPKSEEIISKFYPVSDLKYYRFKVFDKTIISRTGYTGEDGFEIYVSPEEGKELFLELVKLAKPCGLGARDVLRIEAGLPLYGNELSEEITPIEVNLEKFVDFSKEFIGKEAMLKKKVKKKLFGLELTEKGIPRKGYRVFKGDREIGWISSGTYSPTLNKGIALCFVDIEERKEGNEVEIEVRGRRVRGVLRKYPFVRTPAGRYQKLEHHHHHH”, the “soluble on expression in E. coli” value was “not soluble”.
With “MTESDVDSGSKKYLSNHKGIFIHVTLEELKRYHQLTPEQKRLIRAIVKTLIHNPQLLDESSYLYRLLASKAISQFVCPLCLMPFSSSVSLKQHIRYTEHTKVCPVCKKEFTSTDSALDHVCKKHNICVS” the “soluble on expression in E. coli” value was “soluble”.
For “MKALKLYGVEDLRYEDNEKPVIESANDVIVKVRATGICGSDTSRYKKMGPYIKGMPFGHEFSGVVDAIGSDVTHVNVGDKVTGCPAIPCYQCEYCLKGEYARCEKLFVIGSYEPGSFAEYVKLPAQNVLKVPDNVDYIEAAMVEPSAVVAHGFYKSNIQPGMTVAVMGCGSIGLLAIQWARIFGAAHIIAIDIDAHKLDIATSLGAHQTINSKEENLEKFIENHYANQIDLAIESSGAKVTIGQILTLPKKGGEVVLLGIPYDDIEIDRVHFEKILRNELTVCGSWNCLSSNFPGKEWTATLHYMKTKDINVKPIISHFLPLEKGPETFDKLVNKKERFDKVMFTIY”, the “soluble on expression in E. coli” value was “not soluble”.
In the case of “MQRERTAESSLRVISKEKNSITVEMINYDNTLLRTLVEEILKDDQVDEARYYIKHPVIDNPQIYVRVKSGKPQSAIKRAVRKLSKLYEDLGTQFQKEFQRYESDHMIKAVE”, the “soluble on expression in E. coli” value was “soluble”.
In the case of “MKMADAKQKRNEQLKRWIGSETDLEPPVVKRKKTKVKFDDGAVFLAACSSGDTEEVLRLLERGADINYANVDGLTALHQACIDDNVDMVKFLVENGANINQPDNEGWIPLHAAASCGYLDIAEYLISQGAHVGAVNSEGDTPLDIAEEEAMEELLQNEVNRQGVDIEAARKEEERIMLRDARQWLNSGHINDVRHAKSGGTALHVAAAKGYTEVLKLLIQARYDVNIKDYDGWTPLHAAAHWGKEEACRILVENLCDMEAVNKVGQTAFDVADEDILGYLEELQKKQNLLHSEKREKKS”, the “soluble on expression in E. coli” value was “soluble”.
In the case of “MGSDKIHHHHHHMKVAIVIHDLKGGGAEKMMMRLANAISKQHHEVDLVLLTNGGTNKDLLDNGVNLIELNSLRTASSVPRLRQYLKINSPDRVLSALTHVNVITFIACLSLGWLSRLHCSERNAFSFDKDVNKSPLIKFAYFLAPFLYRISPNPVIAVSLGVALDLIETTVVCPKNVINLPNPTLNDNYKTHIFLAPSHPWLSDKTKPVIVGLGRLAQQKGFSDLINAFALVREKIDSRLIIFGEGELRIKLQTQIDNLGLTDSVSLFGYVRAPMDEVHSADVFVLSSLFEGSPNALVEAMASRCKVVSTRCPCGPDEILIQGALGILVPVKSPNKLAEAIICSLLDADYDFENQLDKIERFTANNSASAYLSAMGIHGV”, the “soluble on expression in E. coli” value was “not soluble”.
With “GPGSMRSASAYGLDGQARSLCSLYHPSLNSQECHRFLIGTANPSADNKIHLIEYQDDTKSLECATVWSHNDPVMGLWCSPSLSADSLLAVSSLRKLVVFQISENVLNEPKCIATMNKNYSRVLWDLDGLQREFRAVHQNTLTTVFLSSSKLGSETVNYTSSGGFIRCAALAPYDPNLCLISCDSDGLQLVDLRSKKASSFATTKYSHGFGYTTAVDFDRLKPGQFLSAGTDGYVYIHDIRYNTSCSLAILRHMKAHEHAVQSCSFNSFRDELVLSCSSDQTLKLWDVEHNNEPKCLRRLADYGDSVVALCWSGNSPWVFAGLSFNGKLLVDTVPNEKKMSILLDEKKWCET” the “soluble on expression in E. coli” value was “not soluble”.
For “MKRISTLFLLATLGLAAGTAQAAQPDAGLTGCAAKRSAIENQLKIARDHGNSDQVGGLEEALRGVDNCTDASLRKEREQKVLDARHEVAQREKDLKKAEKKGDAEKINKRKDKLAESRKELQEAVDALDR”, the “soluble on expression in E. coli” value was “not soluble”.
In the case of “MSLAEQKPGEGQKTAIKIGVMIDLSGPLTTYGNSIKNTLEIAKEDINAYLEEKGLPYTVEFYVEDTKVDPKIALEKIQSLHSKGINLVIGPMGSGEVSNIKGYVQSNKIIIISPSSTLLPSLLGITKPEDKKYIFRFVGTDDLQTDAITAELKDLGIKAVIITYTGNDWGKGLYETIKPKLDAAGIEIVGEPVEYPSPPPADFSPYIATLESKLNDALQKYDASEVAVVAFSYEEAATMLAQTKDDSPLLNVLWLGCDGTALSDKMLEVCDKASKVRMLSTLFESKGEAYEQLAKKYKERGFGDSPYQYALNAYDAAWVLVLSYIEVVKEKGSYDPDAMNAKIPEVTEKYSKGEYGVKPVSGYIKLNEWNDRASGDYAIYEVTQDCKWQTAGIWKFTENKIEWLEGHHHHHH”, the “soluble on expression in E. coli” value was “soluble”.
For “MGSDKIHHHHHHMGAKKNFVLDTNVILHDYKCIENFQENDIYLPIVVLEELDKFKKGSEQINYNAREFVRELDLLTSNDLFLKGASLGPGKGTLYIVTGDKYQEKIAHSFPDKTPDHRILSCALTIAEKNPKIKTTLVSKDVNLRMKARSLGIPVEDYITDKVVNVDIFERAQETYENIDPDLIDKIYSSPEGVDADSLDIKSKLDPNECFILKSVRNSVLARYNPFTDKIKKVDKGTNFGIQPRNAEQSFAFEVLNDPNIKLVGLTGKAGTGKTLLALASALKQAGTYKQILLARPIVALANKDLGFLPGDEKQKVAPYMQPLFDNLNVIKTQFAPGNPDVRKIDDMQKNNQLVIEALAFIRGRSLSETYCIIDEAQNLTPHEIKTIITRAGEGTKMVFTGDIQQIDSPYLDAQSNGLAYMIDKMKGQDLFAHINLIKGERSELSELASDLL”, the “soluble on expression in E. coli” value was “not soluble”.
For “MGSDKIHHHHHHMLTTLAIFNYRSLREIVLPLGQLNLITGANGSGKSNLYKALRLLAQTAQGGVVNALAQEGGLDSSFWAGPENFTKSMLAGDTAIEATVRQAPKRLKLGFAGEDFSYLIELGLPEPDATTLFGLDPQIKREAIWNGPKYRPSTVLVERRGPMVKSRSADGKGWIILGAHLQTGDSLFTELADPERCPEVLKLRDSIRAWRFYDHFRTDAEAPARRPQLGTATPVLHHDGRDLASAIQTIFEIGDKSAFDHAVSDAFPGAKVRIEPQAGGILVLAFHQHGLLRPLNASELSDGTLRYLLLIAALLTPRPPELMVLNEPETSLHPDLLPALARLIAKVSEECQLWVVSHANRLINALSQFEHCNTLALDKTLGQTQIQGQDLLNTPSWLWQNR”, the “soluble on expression in E. coli” value was “not soluble”.
For “MAHHHHHHMSRLVMTAPPSLPPFLLLSGASSPPPPPISHTHTHTHTHTHTAMASLAHLSTPLPSEPSAAAPPPAASAPAGALHLERFLESVLKQNLDTVLSQRDELYATVAQCAQLRWLMDDMQALSRYHSFIEASTAAETAAAVPLSALSPVASGSPNASLPLMSKRAQADAYKPPQKNKVLVDLGNHFYTQGVVKDAGVLFMNMGCGVVLPMSLDEAREFLRKKEAVVRRMIMNKSKEALRIKYRIRLVTEAIARLHERHLGL”, the “soluble on expression in E. coli” value was “not soluble”.
In the case of “MGSDKIHHHHHHMNIQQMKYVAAIANNGSFREAAKKLFITQPSLSNSIRELEEELGISLFLRTNKGAFLTEEGMVFLEQAEKVLVQMELLENRYRETVTSERFSISSQHYDFLGEVIAKVLKKYGDQYKDFRVFETTTLKVIEDVKGFHSELGIIYLNEQNSVSIERYLEQANLAYEVISTFNTHIFLGNHHPLAKQKEIHLEELVPYPQVRFNQEGSNFSYFSEDLVEIPEQESVIHTTDRGTLMNLLVETNAYASGSGVVTGFTKKEIRLVPLAPALENRICLLFPKNREISPIGRYFIKELKALFKKEVDTKTFSTKE”, the “soluble on expression in E. coli” value was “not soluble”.
In the case of “MGSDKIHHHHHHKFIIFTYKDSYINQSATFHSDRTNLNIKREKCDFSFFNISIGHKLSLSLQNLIINPFNYMAFTNNIMIVRHRLLTELVKLWKNGELTTDKIDRLPLELSPRRSKHAGRCCVHKERAVWKYKSLPLLGLDMDDETDELTPLSEYAARSIERANNGKPKDNIMCVIDEACSACVQINYEITDLCRGCTARSCQYNCPKGAVHVHADTGKAWIDHDTCISCGICHKSCPYHAIVYIPVPCEESCPVKAISKDEHGIEHIDENKCIYCGKCMNACPFGAIFEISQTFDVLQRIRKGEQVVAIVAPSILGQFSTTIEQVYGAFRQIGFTDIIEVAQGAMSTVEHEAHELIEKLEEGQKFMTTSCCPSYIELVNKYIPDMKKYVSGTGSPMYYAARIAKEKYPDAKIVFVGPCVAKRKEAQRDEAVDFVMTFEEISSIFDAFEINLEIVQPYAMEFSSVREAHGFAQAGGVMGAVKAFLKMEADKINAIQVSDLNKKNIGTLRAYAKSGKAPGQFIEVMACEGGCITGPSTHSGSNNGKRQLVQELAKQKKTY”, the “soluble on expression in E. coli” value was “not soluble”.
With “MEGQTHDAQNNVPEHDNPLMNVKNPSSNLFSKKDAQCLSVLCNGKWLQIVRSSPKVSCEASTCPSHILTKVGENYVAESEKMHKKVISFSSKTFSQGTLQFTMRANGTPHFVFKLENQKDVYVASLSSNVQDQNSYMIHLQRGESSASSSHLVGRINVSTLFSEKVLEREFVLFSSNGENLKIPRTRKNRGLSKKVVHAVKNERRTARLSRTSFIPDLGSWDEQFQAQNYDCLLKNKLPTNLETLAVVVKQETIEDEIGGWGLKFLKRSPMFQRSNDASETETSTSSISMNVVIPSGIHGGPEDGPSSLIERWKSQGNCDCGGWDLCCSLTLLKGQPRKDQYFELFIEVKLSFISSNTSIL” the “soluble on expression in E. coli” value was “not soluble”.
For “MNGYVYLVGAGPGDEGLITKKAIECLKRADIVLYDRLLNPFFLSYTKQTCELMYCGKMPKNHIMRQEMINAHLLQFAQEGKIVVRLKGGDPSIFGRVGEEAETLAAANIPYEIVPGITSSTAASSYAGIPLTHRNYSNSVTLLTGHAKGSLTDHGKYNSSHNSDTIAYYMGIKNLPTICKNLRQAGKKEDTPVAVIEWGTTGKQRVVTGTLSTIVSIVKNENISNPSMTIVGDVVSLRDQIAWKEHKPLHGKKVLFTSATNKTSVMKQKLQEAGAEIYQIPTFKKEEYTLTLEQIIEIFNVNRLVFCSAESVEILMQSCSKYKKDIRSLQAELQHMNVATQEKLMQYGLLSKEAKFSSDTTVYLGRNINRIAFIQEKIGAGSYMMTHKYTIDHRFDEVHSRMLSEFLWDSIVFEGRASIDTFLAEVKRLGFLDIVTLPFSYTDVPTLRYANKVGFHNIDHQLQETLMQKDMVRQ”, the “soluble on expression in E. coli” value was “not soluble”.
